Results published in article PMC3458569 (Nucleic Acids Research, 2012).
Where a chain is given by its changes, count along the chain named. Names and notes keep the numbering of the source. Each block holds one binder with its values, some of them ahead of it.

Key:
UvrB wild type = target: T1, UvrB wild type (Bacillus subtilis, UniProt P37954 1-661); assay: X-ray crystallography
T1 sequence: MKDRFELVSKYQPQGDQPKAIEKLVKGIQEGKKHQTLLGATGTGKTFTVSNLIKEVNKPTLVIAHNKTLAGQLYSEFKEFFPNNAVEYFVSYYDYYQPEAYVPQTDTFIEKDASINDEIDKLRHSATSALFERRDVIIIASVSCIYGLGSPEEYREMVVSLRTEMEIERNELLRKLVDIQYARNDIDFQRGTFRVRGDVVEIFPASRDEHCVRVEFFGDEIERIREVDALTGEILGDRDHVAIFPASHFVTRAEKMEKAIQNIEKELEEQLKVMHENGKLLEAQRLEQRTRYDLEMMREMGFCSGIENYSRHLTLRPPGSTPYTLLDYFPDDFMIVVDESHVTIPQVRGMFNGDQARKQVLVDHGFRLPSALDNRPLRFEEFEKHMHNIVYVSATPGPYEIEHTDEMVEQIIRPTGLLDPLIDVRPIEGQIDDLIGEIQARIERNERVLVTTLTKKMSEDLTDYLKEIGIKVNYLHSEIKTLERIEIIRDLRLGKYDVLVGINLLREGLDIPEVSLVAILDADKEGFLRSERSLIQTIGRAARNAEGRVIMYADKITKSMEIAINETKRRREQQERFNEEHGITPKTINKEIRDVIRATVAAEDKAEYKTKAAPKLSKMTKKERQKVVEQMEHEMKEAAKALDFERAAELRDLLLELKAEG

Bacillus subtilis UvrA = Bacillus subtilis UvrA (Bacillus subtilis, UniProt O34863 1-957); assay: native gel or EMSA
Bacillus subtilis UvrA, sequence (O34863 whole entry): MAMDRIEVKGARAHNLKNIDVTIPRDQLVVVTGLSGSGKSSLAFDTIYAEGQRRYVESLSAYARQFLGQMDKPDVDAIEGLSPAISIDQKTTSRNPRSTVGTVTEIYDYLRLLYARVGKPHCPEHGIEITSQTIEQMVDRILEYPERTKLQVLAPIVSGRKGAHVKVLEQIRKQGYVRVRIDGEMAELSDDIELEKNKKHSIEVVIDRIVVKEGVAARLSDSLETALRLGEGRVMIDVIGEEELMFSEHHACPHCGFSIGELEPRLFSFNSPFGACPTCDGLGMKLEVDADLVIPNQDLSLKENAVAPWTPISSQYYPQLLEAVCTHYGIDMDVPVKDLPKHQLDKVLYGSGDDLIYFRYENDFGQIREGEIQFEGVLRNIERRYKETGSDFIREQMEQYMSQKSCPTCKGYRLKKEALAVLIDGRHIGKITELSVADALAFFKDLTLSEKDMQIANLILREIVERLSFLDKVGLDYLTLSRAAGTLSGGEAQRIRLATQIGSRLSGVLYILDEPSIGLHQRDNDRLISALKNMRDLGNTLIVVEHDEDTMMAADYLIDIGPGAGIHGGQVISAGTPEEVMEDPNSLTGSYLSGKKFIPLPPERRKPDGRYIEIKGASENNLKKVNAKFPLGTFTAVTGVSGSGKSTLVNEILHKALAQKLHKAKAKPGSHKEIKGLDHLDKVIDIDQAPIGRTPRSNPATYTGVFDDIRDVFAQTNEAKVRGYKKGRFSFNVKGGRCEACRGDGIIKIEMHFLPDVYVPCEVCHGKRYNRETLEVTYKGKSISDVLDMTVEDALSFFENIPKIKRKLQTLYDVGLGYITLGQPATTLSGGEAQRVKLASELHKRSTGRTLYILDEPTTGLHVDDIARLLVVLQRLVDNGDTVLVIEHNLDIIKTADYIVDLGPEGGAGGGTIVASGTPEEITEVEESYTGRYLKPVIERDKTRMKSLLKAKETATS

crystal structure = target: the molecule itself; assay: crystal structure
cross-linking = target: the molecule itself; assay: cross-linking
DEER = target: the molecule itself; assay: DEER

Binder: TACTGTTT (ssDNA, T-fluorescein at position 6) [TACTG(TF6)TT 8-mer]
binding result (UvrB wild type): binds

binding result (Bacillus subtilis UvrA): binds
B1: Bacillus subtilis UvrB (wild type) (natural protein)
chain: T1 sequence
stoichiometry N (crystal structure): 2

B2: Bacillus subtilis UvrB T481C mutant (natural protein)
chain: T1 sequence with T481C
binding result (cross-linking): binds

B3: Bacillus subtilis UvrB T481C mutant, spin labeled with PROXYL (natural protein)
chain: T1 sequence with T481C
modifications: nitroxide spin label 3-(2-iodoacetamido)-proxyl (PROXYL) on C481
binding result (DEER): binds
